The values below come from the array DNA melting data of Ke et al..

This data set is described as follows: melting temperature; melt of duplexes. As to conditions: sodium 0.0675 M; strand 1 µM.
As for “CGACGTGCGTAATGTGCTG+CAGCACATTGCGCACGTCG (((((((((.(((((((((+))))))))).)))))))))”, the melting temperature (Tm) (commonly the temperature at which the thermal transition is half complete) came to 60.3 °C. The same measure for “CGACGTGCGTTATGTGCTG+CAGCACATGTGGCACGTCG ((((((((...((((((((+))))))))...))))))))”: 49.6 °C; for “CGACGTGCGAGATGTGCTG+CAGCACATGAAGCACGTCG ((((((((...((((((((+))))))))...))))))))”: 55.4 °C; for “CGACGTGCATGATGTGCTG+CAGCACATAAAGCACGTCG ((((((((.(.((((((((+)))))))).).))))))))”: 50.7 °C.

As for “CGACGTGCGCCATGTGCTG+CAGCACATTTAGCACGTCG ((((((((...((((((((+))))))))...))))))))”, the Tm is 50.1 °C. The same measure for “CGACGTGCACTATGTGCTG+CAGCACATACGGCACGTCG ((((((((..(((((((((+)))))))))..))))))))”: 46 °C. The same measure for “CGACGTGCATAATGTGCTG+CAGCACATGAAGCACGTCG ((((((((.(.((((((((+)))))))).).))))))))”: 52.8 °C; for “CGACGTGCCGCATGTGCTG+CAGCACATAGTGCACGTCG ((((((((...((((((((+))))))))...))))))))”: 46.8 °C.

As for “CGACGTGCTAAATGTGCTG+CAGCACATAAAGCACGTCG (((((((((..((((((((+))))))))..)))))))))”, the Tm is 53.1 °C. In the case of “CGACGTGCAAGATGTGCTG+CAGCACATCCTGCACGTCG (((((((((.(((((((((+))))))))).)))))))))” it was 56.5 °C; in that of “CGACGTGCGGGATGTGCTG+CAGCACATACTGCACGTCG ((((((((.(.((((((((+)))))))).).))))))))”, 56.9 °C; in that of “CGACGTGCGATATGTGCTG+CAGCACATGTAGCACGTCG ((((((((.(.((((((((+)))))))).).))))))))”, 54.9 °C. In the case of “CGACGTGCGAAATGTGCTG+CAGCACATTGAGCACGTCG ((((((((..(((((((((+)))))))))..))))))))” it was 61.3 °C; in that of “CGACGTGCCTGATGTGCTG+CAGCACATGAAGCACGTCG ((((((((.(.((((((((+)))))))).).))))))))”, 49.8 °C; in that of “CGACGTGCGCAATGTGCTG+CAGCACATGAGGCACGTCG ((((((((...((((((((+))))))))...))))))))”, 52.4 °C. In the case of “CGACGTGCACTATGTGCTG+CAGCACATCCGGCACGTCG ((((((((...((((((((+))))))))...))))))))” it was 43.2 °C.

In the case of “CGACGTGCACTATGTGCTG+CAGCACATTACGCACGTCG ((((((((...((((((((+))))))))...))))))))”, the Tm was found to be 43.6 °C. In the case of “CGACGTGCATAATGTGCTG+CAGCACATCTCGCACGTCG ((((((((...((((((((+))))))))...))))))))” it was 47.6 °C; in that of “CGACGTGCGTGATGTGCTG+CAGCACATTAGGCACGTCG ((((((((.(.((((((((+)))))))).).))))))))”, 54.1 °C. In the case of “CGACGTGCGGGATGTGCTG+CAGCACATCAGGCACGTCG ((((((((..(((((((((+)))))))))..))))))))” it was 56.2 °C; in that of “CGACGTGCATCATGTGCTG+CAGCACATGCGGCACGTCG ((((((((..(((((((((+)))))))))..))))))))”, 52.7 °C; in that of “CGACGTGCCCAATGTGCTG+CAGCACATGTCGCACGTCG ((((((((...((((((((+))))))))...))))))))”, 49.5 °C. The same measure for “CGACGTGCCACATGTGCTG+CAGCACATCACGCACGTCG ((((((((...((((((((+))))))))...))))))))”: 46.2 °C.

With “CGACGTGCTGTATGTGCTG+CAGCACATGTCGCACGTCG ((((((((...((((((((+))))))))...))))))))”, the Tm was determined as 49.3 °C. The same measure for “CGACGTGCATTATGTGCTG+CAGCACATCCGGCACGTCG ((((((((...((((((((+))))))))...))))))))”: 47.3 °C. In the case of “CGACGTGCGAGATGTGCTG+CAGCACATAAGGCACGTCG ((((((((...((((((((+))))))))...))))))))” it was 51.1 °C; in that of “CGACGTGCTATATGTGCTG+CAGCACATCCCGCACGTCG ((((((((...((((((((+))))))))...))))))))”, 47.2 °C; in that of “CGACGTGCGCGATGTGCTG+CAGCACATTTAGCACGTCG ((((((((...((((((((+))))))))...))))))))”, 52.2 °C. The same measure for “CGACGTGCGTTATGTGCTG+CAGCACATCACGCACGTCG ((((((((((.((((((((+)))))))).))))))))))”: 56.8 °C.

As to “CGACGTGCCAGATGTGCTG+CAGCACATGCGGCACGTCG (((((((((..((((((((+))))))))..)))))))))”, the Tm turned out to be 54.6 °C. The same measure for “CGACGTGCCTGATGTGCTG+CAGCACATCTTGCACGTCG ((((((((..(((((((((+)))))))))..))))))))”: 53.7 °C; for “CGACGTGCTTGATGTGCTG+CAGCACATGGAGCACGTCG (((((((((..((((((((+))))))))..)))))))))”: 54 °C.

“CGACGTGCGTAATGTGCTG+CAGCACATGTTGCACGTCG ((((((((...((((((((+))))))))...))))))))”: the Tm turned out to be 51.7 °C. In the case of “CGACGTGCTCTATGTGCTG+CAGCACATTTCGCACGTCG ((((((((...((((((((+))))))))...))))))))” it was 47.3 °C; in that of “CGACGTGCTTTATGTGCTG+CAGCACATGCAGCACGTCG (((((((((..((((((((+))))))))..)))))))))”, 50.9 °C; in that of “CGACGTGCACTATGTGCTG+CAGCACATCCTGCACGTCG (((((((((..((((((((+))))))))..)))))))))”, 44.9 °C.

“CGACGTGCAATATGTGCTG+CAGCACATGTTGCACGTCG ((((((((((.((((((((+)))))))).))))))))))”: the Tm was determined as 58.4 °C. For “CGACGTGCCCGATGTGCTG+CAGCACATACGGCACGTCG (((((((((..((((((((+))))))))..)))))))))”, the Tm worked out at 53.5 °C.

Take “CGACGTGCCCCATGTGCTG+CAGCACATGCTGCACGTCG ((((((((..(((((((((+)))))))))..))))))))”: the melting temperature (Tm) was found to be 49.7 °C. For “CGACGTGCTTCATGTGCTG+CAGCACATAACGCACGTCG ((((((((.(.((((((((+)))))))).).))))))))”, the Tm came out at 49.3 °C. Turning to “CGACGTGCGTAATGTGCTG+CAGCACATAGCGCACGTCG (((((((((..((((((((+))))))))..)))))))))”, the Tm was 56.1 °C. On to “CGACGTGCCCTATGTGCTG+CAGCACATCCGGCACGTCG (((((((((..((((((((+))))))))..)))))))))”, for which the Tm was 52.2 °C.

Regarding “CGACGTGCCAAATGTGCTG+CAGCACATGCGGCACGTCG (((((((((..((((((((+))))))))..)))))))))”, the Tm was found to be 57.1 °C.

For “CGACGTGCCGGATGTGCTG+CAGCACATGCAGCACGTCG ((((((((.(.((((((((+)))))))).).))))))))”, the Tm is 53.1 °C. With “CGACGTGCGCGATGTGCTG+CAGCACATCCAGCACGTCG ((((((((..(((((((((+)))))))))..))))))))”, the Tm came to 55.6 °C. As for “CGACGTGCGTTATGTGCTG+CAGCACATATGGCACGTCG ((((((((..(((((((((+)))))))))..))))))))”, the melting temperature (Tm) came out at 51.1 °C. With “CGACGTGCTAGATGTGCTG+CAGCACATCATGCACGTCG ((((((((..(((((((((+)))))))))..))))))))”, the Tm came to 55.6 °C.
